According to patent publication US20240100176A1 (Eli Lilly, published 2024):

Legend:
[1] = target: T1, human IL-4Rα on cells (human PBMC B cells and CD4+ T cells, Daudi cells, HEK-Blue IL-4/IL-13 cells, myeloid … (human, UniProt P24394 26-825)); test: flow cytometry on human PBMCs, CD4-positive T cells, Alexa Fluor 647 labelled antibody, percent IL-4Rα positive cells
T1 sequence: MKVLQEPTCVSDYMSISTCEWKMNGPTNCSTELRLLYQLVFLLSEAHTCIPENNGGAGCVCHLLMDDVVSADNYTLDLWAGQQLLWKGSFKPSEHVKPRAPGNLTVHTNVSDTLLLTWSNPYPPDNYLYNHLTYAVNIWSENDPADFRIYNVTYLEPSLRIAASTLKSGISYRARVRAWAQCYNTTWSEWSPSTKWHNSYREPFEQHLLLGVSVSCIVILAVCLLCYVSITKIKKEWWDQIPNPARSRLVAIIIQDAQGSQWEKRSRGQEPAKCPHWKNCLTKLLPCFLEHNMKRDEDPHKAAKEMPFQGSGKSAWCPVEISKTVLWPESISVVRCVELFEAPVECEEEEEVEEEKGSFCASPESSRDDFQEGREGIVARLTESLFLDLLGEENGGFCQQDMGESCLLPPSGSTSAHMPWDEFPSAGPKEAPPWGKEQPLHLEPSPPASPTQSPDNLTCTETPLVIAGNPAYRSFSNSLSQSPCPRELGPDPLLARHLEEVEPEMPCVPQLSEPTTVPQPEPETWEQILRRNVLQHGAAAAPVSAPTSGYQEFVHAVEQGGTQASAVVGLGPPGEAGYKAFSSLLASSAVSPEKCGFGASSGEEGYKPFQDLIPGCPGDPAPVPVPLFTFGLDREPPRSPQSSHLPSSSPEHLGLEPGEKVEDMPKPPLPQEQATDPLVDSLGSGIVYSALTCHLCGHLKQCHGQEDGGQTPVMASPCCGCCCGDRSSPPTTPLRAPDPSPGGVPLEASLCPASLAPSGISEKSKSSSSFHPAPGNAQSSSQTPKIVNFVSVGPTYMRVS
Experimental: Example 3b. Binding to B cells and T cells: Binding of the exemplified anti-human IL-4Rα antibodies to B cells and T cells was tested in a Fluorescence Activated Cell Sorting (FACS) assay. […] Freshly isolated cells PBMCs were resuspended at 2×10⁶ cells/mL and allowed to rest for 15 minutes at room temperature, then plated at 100 μL/well into a round bottom 96-well plate (COSTAR®) and washed with FACS buffer (PBS containing 2% fetal bovine serum from Corning®). Exemplified anti-human IL-4Rα antibodies and the respective control IgG antibodies conjugated to Alexa Fluor® 647 according to manufacturer's protocol (Thermo Fisher Scientific) were added to the wells at 66.67 nM and diluted 4-fold in duplicate. Equivalent volume of 2× antibody cocktail containing: Human TruStain FcX™. FITC anti-human CD3 Antibody, Alexa Fluor® 700 anti-human CD4 Antibody (all from Biolegend®) and CD20 Monoclonal Antibody (2H7), PerCP-Cyanine5.5 (Thermo Fisher Scientific) was then added to the wells. Cells were incubated at 4° C. for 30 minutes, washed twice with FACS buffer and resuspended in a final volume of 100 μL FACS buffer. Viability dye, Sytox™ blue (Thermo Fisher Scientific), was added and the samples were analyzed via a flow cytometer (LSRFortessa™ X-20; BD BIOSCIENCES). Data analysis was performed using FlowJo software and statistical analysis was performed using GraphPad Prism 9. […]

[2] = target: T2, human FcγRIIb (CD32b) extracellular domain (human, UniProt P31994 43-217); test: SPR (Biacore), antibody captured on protein A, FcγR ECD as analyte, steady state, 25 °C
T2 construct: extracellular domain
T2 sequence (looked up): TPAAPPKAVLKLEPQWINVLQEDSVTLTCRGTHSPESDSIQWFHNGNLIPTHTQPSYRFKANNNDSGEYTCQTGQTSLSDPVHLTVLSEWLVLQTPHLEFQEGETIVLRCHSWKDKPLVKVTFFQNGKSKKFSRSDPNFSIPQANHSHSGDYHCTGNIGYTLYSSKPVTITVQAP
Experimental: Unreacted sites were blocked with a 7 minute injection of ethanolamine at 10 μL/minute. Injections of 2×10 μL of glycine, pH 1.5, was used to remove any noncovalently associated protein. Running buffer was 1×HBS-EP+(TEKNOVA, P/N H8022). The FcγR extracellular domains (ECDs)-FcγRI (CD64), FcγRIIA_131R, and FcγRIIA_131H (CD32a), FcγRIIIA_158V, FcγRIIIA_158F (CD16a), and FcγRIIb (CD32b) were produced from stable CHO cell expression and purified using IgG Sepharose and size exclusion chromatography. For FcγRI binding, antibodies were diluted to […] in running buffer, and approximately 150 RU of each antibody was captured in FCs 2 through 4 (RU captured). FC1 was the reference FC, therefore no antibody was captured in FC1. […] Duplicate injections of each concentration were injected over all FCs at 40 μL/minute for 120 seconds followed by a 1200 second dissociation phase. Regeneration was performed by injecting 15 μL of 10 mM glycine, pH 1.5, at 30 μL/minute over all FCs. Reference-subtracted data was collected as FC2 FC1, FC3-FC1, and FC4-FC1 and the measurements were obtained at 25° C. The affinity (KD) was calculated using either steady state equilibrium analysis with the Scrubber 2 Biacore Evaluation Software or a “1:1 (Langmuir) binding” model in BIA Evaluation. For FcγRIIa, FcγRIIb, and FcγRIIIa binding, antibodies were diluted to 5 μg/mL in running buffer, and approximately 500 RU of each antibody was captured in FCs 2 through 4). FC1 was the reference FC. […] Duplicate injections of each concentration were injected over all FCs at 40 μL/minute for 60 seconds followed by a 120 second dissociation phase. Regeneration was performed by injecting 15 μL of 10 mM glycine, pH 1.5, at 30 μL/minute over all FCs. Reference-subtracted data was collected as FC2-FC1, FC3-FC1, and FC4-FC1, and the measurements were obtained at 25° C. The affinity (KD) was calculated using the steady state equilibrium analysis with the Scrubber 2 Biacore Evaluation Software. Each receptor was assayed at least two times.

B1: anti-human IL-4Rα antibody Ab1 (antibody, human IgG4 S228P, kappa)
heavy: QVQLVESGGGLVQPGGSLRLSCVASGFTFSHSSMNWVRQAPGKGLEWVSYISRATGAVYYADSVKGRFTISRDNAKNSLYLQMNSLRDEDTAVYYCAREPVFDYWGQGTLVTVSSASTKGPCVFPLAPCSRSTSESTAALGCLVKDYFPEPVTVSWNSGALTSGVHTFPAVLQSSGLYSLSSVVTVPSSSLGTKTYTCNVDHKPSNTKVDKRVESKYGPPCPPCPAPEFLGGPSVFLFPPKPKDTLMISRTPEVTCVVVDVSQEDPEVKFNWYVDGVEVHNAKTKPREEQFNSTYRVVSVLTVLHQDWLNGKEYKCKVSNKGLPSSIEKTISKAKGQPREPQVYTLPPSREEMTKNQVSLTCLVKGFYPSDICVEWESNGQPENNYKTTPPVLDSDGSFFLYSRLTVDKSRWQQGNVFSCSVMHEALHNHYTQKSLSLSLG
light: DIQMTQSPSAMSASVGDRVTITCRASQDISNYLAWFQQKPGKVPTRLIYAASSLQSGVPSRFSGSGSGTEFTLTISSLQPEDFATYYCLQWSSYPRTFGQGTKVEIKRTVAAPSVFIFPPSDEQLKSGTASVVCLLNNFYPREAKVQWKVDNALQSGNSQESVTEQDSKDSTYSLSSTLTLSKADYEKHKVYACEVTHQGLSSPVTKSFNRGEC
notes: human kappa light chain; also called anti-human IL-4Rα Ab1; unconjugated Ab1
Binder B1 has an EC50 [1] of 26.3 nM.

B2: anti-human IL-4Rα Ab1 GC conjugate of Example 1b (n=4) (antibody, human IgG4 S228P, kappa)
heavy: QVQLVESGGGLVQPGGSLRLSCVASGFTFSHSSMNWVRQAPGKGLEWVSYISRATGAVYYADSVKGRFTISRDNAKNSLYLQMNSLRDEDTAVYYCAREPVFDYWGQGTLVTVSSASTKGPCVFPLAPCSRSTSESTAALGCLVKDYFPEPVTVSWNSGALTSGVHTFPAVLQSSGLYSLSSVVTVPSSSLGTKTYTCNVDHKPSNTKVDKRVESKYGPPCPPCPAPEFLGGPSVFLFPPKPKDTLMISRTPEVTCVVVDVSQEDPEVKFNWYVDGVEVHNAKTKPREEQFNSTYRVVSVLTVLHQDWLNGKEYKCKVSNKGLPSSIEKTISKAKGQPREPQVYTLPPSREEMTKNQVSLTCLVKGFYPSDICVEWESNGQPENNYKTTPPVLDSDGSFFLYSRLTVDKSRWQQGNVFSCSVMHEALHNHYTQKSLSLSLG
light: DIQMTQSPSAMSASVGDRVTITCRASQDISNYLAWFQQKPGKVPTRLIYAASSLQSGVPSRFSGSGSGTEFTLTISSLQPEDFATYYCLQWSSYPRTFGQGTKVEIKRTVAAPSVFIFPPSDEQLKSGTASVVCLLNNFYPREAKVQWKVDNALQSGNSQESVTEQDSKDSTYSLSSTLTLSKADYEKHKVYACEVTHQGLSSPVTKSFNRGEC
modifications: glucocorticoid receptor agonist payload-linker (GC-L, Preparation 8) conjugated to the engineered cysteines at the 124 and 378 position of the heavy chain (EU numbering); n is 4 (average DAR 4.17 by RP-HPLC, 3.85 by TOF MS)
In the case of B2, the Kd [2] is reported as 1960 nM.
